Data: publication PMC3089468 (Nucleic Acids Research, 2011)

Columns and labels:
Experiment in all cases: two-hybrid
[1] = target: λCI_Arnt362 L221H (human, UniProt P27540 1-362, L221H)
[2] = target: λCI_Arnt362 G341D (human, UniProt P27540 1-362, G341D)
[3] = target: λCI_Arnt362 V306D (human, UniProt P27540 1-362, V306D)
[4] = target: λCI_Arnt362 A339D (human, UniProt P27540 1-362, A339D)
[5] = target: λCI_Arnt362 C308R (human, UniProt P27540 1-362, C308R)
[6] = target: λCI_Arnt362 C265R (human, UniProt P27540 1-362, C265R)
Chain of λCI_Arnt362 C265R (P27540 1-362 C265R): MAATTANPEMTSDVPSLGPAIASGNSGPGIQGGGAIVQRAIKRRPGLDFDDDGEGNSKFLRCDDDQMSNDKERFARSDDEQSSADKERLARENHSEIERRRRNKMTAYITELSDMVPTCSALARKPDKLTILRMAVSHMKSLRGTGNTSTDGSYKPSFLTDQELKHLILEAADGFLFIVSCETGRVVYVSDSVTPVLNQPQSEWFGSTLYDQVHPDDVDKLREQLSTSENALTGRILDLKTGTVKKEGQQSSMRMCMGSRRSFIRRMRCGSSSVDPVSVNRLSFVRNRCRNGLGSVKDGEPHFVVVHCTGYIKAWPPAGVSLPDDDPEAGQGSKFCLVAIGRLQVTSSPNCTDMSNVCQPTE

[7] = target: λCI_Arnt362 M267K (human, UniProt P27540 1-362, M267K)
Chain of λCI_Arnt362 M267K (P27540 1-362 M267K): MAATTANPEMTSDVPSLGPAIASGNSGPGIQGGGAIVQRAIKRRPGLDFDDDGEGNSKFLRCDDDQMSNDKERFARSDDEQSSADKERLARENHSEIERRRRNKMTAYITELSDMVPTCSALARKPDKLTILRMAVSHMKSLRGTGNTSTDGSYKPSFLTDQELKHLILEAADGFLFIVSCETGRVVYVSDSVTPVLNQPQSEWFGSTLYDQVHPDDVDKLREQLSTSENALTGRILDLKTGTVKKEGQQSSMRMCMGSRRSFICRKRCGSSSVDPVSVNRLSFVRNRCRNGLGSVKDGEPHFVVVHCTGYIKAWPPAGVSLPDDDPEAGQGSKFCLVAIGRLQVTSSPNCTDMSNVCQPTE

Measured: β-gal activity relative to wt

Chain of λCI_Arnt362 C308R (P27540 1-362 C308R): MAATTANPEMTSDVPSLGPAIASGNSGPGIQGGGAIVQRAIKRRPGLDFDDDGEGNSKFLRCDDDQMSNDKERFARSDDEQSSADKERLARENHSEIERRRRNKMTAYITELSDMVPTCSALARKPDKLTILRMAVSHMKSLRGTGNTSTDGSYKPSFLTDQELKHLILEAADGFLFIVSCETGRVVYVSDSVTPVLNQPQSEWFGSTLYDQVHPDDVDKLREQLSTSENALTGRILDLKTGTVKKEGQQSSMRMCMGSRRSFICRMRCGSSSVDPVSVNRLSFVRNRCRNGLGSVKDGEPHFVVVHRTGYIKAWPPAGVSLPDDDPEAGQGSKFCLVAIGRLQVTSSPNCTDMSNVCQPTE
Chain of λCI_Arnt362 G341D (P27540 1-362 G341D): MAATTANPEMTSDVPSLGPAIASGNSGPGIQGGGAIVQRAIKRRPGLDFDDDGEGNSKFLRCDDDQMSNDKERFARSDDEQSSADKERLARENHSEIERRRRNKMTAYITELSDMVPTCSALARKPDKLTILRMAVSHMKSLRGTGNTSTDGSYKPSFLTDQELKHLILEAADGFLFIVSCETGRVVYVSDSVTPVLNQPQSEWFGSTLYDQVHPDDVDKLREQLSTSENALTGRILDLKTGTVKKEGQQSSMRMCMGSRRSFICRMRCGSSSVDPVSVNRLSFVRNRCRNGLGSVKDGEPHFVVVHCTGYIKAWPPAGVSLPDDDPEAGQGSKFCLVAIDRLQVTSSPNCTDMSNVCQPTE
Chain of λCI_Arnt362 V306D (P27540 1-362 V306D): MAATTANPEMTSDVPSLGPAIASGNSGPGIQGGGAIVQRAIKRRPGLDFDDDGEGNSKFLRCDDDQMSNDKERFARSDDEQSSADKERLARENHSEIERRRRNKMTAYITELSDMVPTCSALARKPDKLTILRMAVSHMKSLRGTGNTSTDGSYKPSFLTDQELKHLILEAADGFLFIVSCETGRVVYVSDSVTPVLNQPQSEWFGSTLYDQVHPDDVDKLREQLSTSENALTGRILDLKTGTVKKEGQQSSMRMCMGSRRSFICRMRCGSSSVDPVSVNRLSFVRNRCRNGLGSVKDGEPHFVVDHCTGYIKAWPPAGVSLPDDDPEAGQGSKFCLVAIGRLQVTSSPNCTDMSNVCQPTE
Chain of λCI_Arnt362 L221H (P27540 1-362 L221H): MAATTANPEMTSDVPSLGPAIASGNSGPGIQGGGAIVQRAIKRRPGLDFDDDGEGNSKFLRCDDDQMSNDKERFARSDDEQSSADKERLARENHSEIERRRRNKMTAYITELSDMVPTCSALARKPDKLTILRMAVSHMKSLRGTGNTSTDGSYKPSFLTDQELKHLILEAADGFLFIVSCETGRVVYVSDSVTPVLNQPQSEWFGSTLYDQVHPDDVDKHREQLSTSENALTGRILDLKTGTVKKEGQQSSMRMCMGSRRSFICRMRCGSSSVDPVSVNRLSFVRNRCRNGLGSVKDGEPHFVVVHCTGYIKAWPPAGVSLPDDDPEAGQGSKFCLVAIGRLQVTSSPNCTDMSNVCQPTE
Chain of λCI_Arnt362 A339D (P27540 1-362 A339D): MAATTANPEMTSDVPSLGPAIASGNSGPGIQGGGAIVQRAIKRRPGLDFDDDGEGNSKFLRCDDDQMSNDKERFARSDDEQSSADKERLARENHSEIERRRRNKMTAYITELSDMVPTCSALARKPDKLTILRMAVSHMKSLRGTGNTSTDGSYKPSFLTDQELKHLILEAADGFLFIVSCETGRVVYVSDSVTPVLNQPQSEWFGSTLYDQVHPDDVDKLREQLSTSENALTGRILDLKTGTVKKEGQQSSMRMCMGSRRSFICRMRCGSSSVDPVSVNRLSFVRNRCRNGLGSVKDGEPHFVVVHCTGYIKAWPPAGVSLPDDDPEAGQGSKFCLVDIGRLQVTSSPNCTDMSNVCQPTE

B1: RNAPα_AhR278 (domain or fragment, mouse, UniProt P30561 1-278, looked up)
chain: MSSGANITYASRKRRKPVQKTVKPIPAEGIKSNPSKRHRDRLNTELDRLASLLPFPQDVINKLDKLSVLRLSVSYLRAKSFFDVALKSTPADRNGGQDQCRAQIRDWQDLQEGEFLLQALNGFVLVVTADALVFYASSTIQDYLGFQQSDVIHQSVYELIHTEDRAEFQRQLHWALNPDSAQGVDEAHGPPQAAVYYTPDQLPPENASFMERCFRCRLRCLLDNSSGFLAMNFQGRLKYLHGQNKKGKDGALLPPQLALFAIATPLQPPSILEIRTKN
47 % of wt activity: [2]
< 60 % of wt β-gal activity: all other assays above
